Measured values reported in patent US20240294931A1 (VIB VZW, published 2024).

Assays:
[1] = target: T1, Arabidopsis thaliana SCARECROW-LIKE 21 (Arabidopsis thaliana, UniProt Q9S7H5 1-413); experiment: yeast two-hybrid with ERF115 fragments
T1 construct: Y2H fusion domains not described; Also the endogenous protein co-purifying in the ERF115 TAP; also called SCL21; AT2G04890
T1 sequence: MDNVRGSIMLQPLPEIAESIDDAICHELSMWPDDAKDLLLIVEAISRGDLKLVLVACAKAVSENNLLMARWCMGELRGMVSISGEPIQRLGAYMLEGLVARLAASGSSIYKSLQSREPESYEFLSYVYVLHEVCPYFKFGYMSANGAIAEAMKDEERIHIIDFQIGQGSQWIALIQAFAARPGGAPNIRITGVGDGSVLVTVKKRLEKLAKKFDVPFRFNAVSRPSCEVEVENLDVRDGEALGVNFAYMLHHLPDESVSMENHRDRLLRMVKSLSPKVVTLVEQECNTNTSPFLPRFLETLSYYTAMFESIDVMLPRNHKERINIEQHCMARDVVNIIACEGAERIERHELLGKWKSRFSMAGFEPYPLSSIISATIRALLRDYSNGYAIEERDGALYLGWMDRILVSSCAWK
Experimental: FIGS. 1A-1L. ERF115 interacts with SCL21 and PAT1. FIG. 1A, Protein interactions identified through TAP using ERF115 and SCL21 as bait. Arrowheads point towards co-purifying proteins. FIG. 1B, Yeast two-hybrid interaction of ERF115 full length and fragments with SCL21 and PAT1. Growth was verified on control medium (+HIS) or selective medium (−HIS) supplemented with 15 mM 3-Amino-1,2,4-triazole (3-AT), using β-glucuronidase (GUS) as a negative control. FIG. 1C, Yeast two-hybrid interaction of ERF2 and ERF6 without (−) or fused to the conserved ERF115 interaction motif (+) with SCL21. The assay was performed similar to (FIG. 1B). […], Root tips expressing ERF115 (dots) (FIGS. 1D and 1E), SCL21 (no expression visible) (FIGS. 1F and 1G), and PAT1 (dots) (FIGS. 1H And 1I) under control conditions (FIGS. 1D, 1F, and 1H) or treated with bleomycin (FIGS. 1E, 1G, and 1I). Arrowheads indicate the quiescent center (QC). Cell walls are counterstained with propidium iodide (PI). Bars=50 μm. FIGS. 1J-1L, Expression of PAT1 (green) and ERF115 (red) in root tips 10 h15 to 11 h30 after recovery from bleomycin treatment. […] Cell walls are counterstained (white) by SCRI Renaissance 2200 dye. Bars=25 μm.

[2] = target: T2, Arabidopsis thaliana PHYTOCHROME A SIGNAL TRANSDUCTION1 (Arabidopsis thaliana, UniProt Q9LDL7 1-490); experiment: yeast two-hybrid
T2 construct: 490 aa; Y2H fusion domains not described; also called PAT1; At5g48150
T2 sequence: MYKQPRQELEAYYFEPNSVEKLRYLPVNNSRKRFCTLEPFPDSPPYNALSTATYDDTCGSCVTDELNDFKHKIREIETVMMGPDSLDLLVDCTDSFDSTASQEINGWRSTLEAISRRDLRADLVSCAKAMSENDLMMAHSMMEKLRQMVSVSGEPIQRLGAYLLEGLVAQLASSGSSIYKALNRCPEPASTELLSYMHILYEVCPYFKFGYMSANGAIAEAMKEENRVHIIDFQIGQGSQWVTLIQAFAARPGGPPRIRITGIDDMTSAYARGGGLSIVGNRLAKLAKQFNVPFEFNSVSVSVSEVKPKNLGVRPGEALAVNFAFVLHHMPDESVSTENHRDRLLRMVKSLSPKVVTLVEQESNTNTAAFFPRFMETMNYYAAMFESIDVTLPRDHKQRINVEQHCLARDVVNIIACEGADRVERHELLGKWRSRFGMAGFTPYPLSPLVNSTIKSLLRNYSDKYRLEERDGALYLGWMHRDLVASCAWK

B1: Arabidopsis thaliana ERF115 A-fragment (N-terminal sequence that precedes the APETALA2 domain) (other)
chain: MANSGNYGKRPFRGDESDEKKEADDDENIFPFFSARSQYDMRAMVSALTQVIGNQSSSHDNNQHQPVVYNQQDPNPPAPPTQDQGLLRK
notes: Y2H fusion domains not described
B1: binds [1]; binds [2].
